Here are results for 2 molecules from publication doi:10.1101/2020.08.16.252742 (bioRxiv, 2020).

In assay [1] the target is HIV-1 JR-FL Env glycoprotein (unlabelled) on HIV-1 Gag-GFP pseudovirions (HIV-1 JR-FL, UniProt Q75760, strain). Description: single-molecule photobleaching of immunostained virions.
Assay [2] deals with HIV-1 NL4-3 Env glycoprotein (unlabelled) on HIV-1 Gag-GFP pseudovirions (HIV-1 group M subtype B, NL4-3 (pNL4-3), strain). Described as above.

B1: anti-HIV-1 gp120 monoclonal antibody PGT145 (antibody, V domains shown)
VH: QVQLVQSGAEVKKPGSSVKVSCKASGNSFSNHDVHWVRQATGQGLEWMGWMSHEGDKTGLAQKFQGRVTITRDSGASTVYMELRGLTADDTAIYYCLTGSKHRLRDYFLYNEYGPNYEEWGDYLATLDVWGHGTAVTVSS
VL: EVVITQSPLFLPVTPGEAASLSCKCSHSLQHSTGANYLAWYLQRPGQTPRLLIHLATHRASGVPDRFSGSGSGTDFTLKISRVESDDVGTYYCMQGLHSPWTFGQGTKVEIK
On to B1, for which the binding result in assay [1] and in assay [2] was “binds” in each case.

B2: anti-HIV-1 gp41 monoclonal antibody 10E8 (antibody, V domains shown)
VH: EVQLVESGGGLVKPGGSLRLSCSASGFDFDNAWMTWVRQPPGKGLEWVGRITGPGEGWSVDYAAPVEGRFTISRLNSINFLYLEMNNLRMEDSGLYFCARTGKYYDFWSGYPPGEEYFQDWGRGTLVTVSS
VL: SYELTQETGVSVALGRTVTITCRGDSLRSHYASWYQKKPGQAPILLFYGKNNRPSGVPDRFSGSASGNRASLTISGAQAEDDAEYYCSSRDKSGSRLSVFGGGTKLTVL
For B2, the binding result in assay [1] and in assay [2] was “binds” in each case.
